Our source for the EC50 values is patent publication CN111333730A (NANJING RONGJIEKANG BIOTECHNOLOGY CO LTD, dated 2020).

The target in this assay is T1, 人源EpCAM重组胞外结构域蛋白 (human, UniProt P16422 24-265).
T1 construct: range 24-265; Made in-house in 293F cells from pcDNA3.4; coated on ELISA plates; also called EpCAM重组蛋白; 人源重组EpCAM
T1 sequence: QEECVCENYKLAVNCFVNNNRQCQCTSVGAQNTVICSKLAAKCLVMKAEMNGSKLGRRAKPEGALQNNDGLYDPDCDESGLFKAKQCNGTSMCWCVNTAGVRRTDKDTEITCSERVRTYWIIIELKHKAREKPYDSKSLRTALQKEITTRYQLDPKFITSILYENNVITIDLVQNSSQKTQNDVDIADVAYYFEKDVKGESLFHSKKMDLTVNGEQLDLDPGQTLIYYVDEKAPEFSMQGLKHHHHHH
The assay can be described thus: ELISA, coated human recombinant EpCAM, anti-HA-HRP detection. On the technique in general: An ELISA detects its analyte on a solid surface through an enzyme-linked reagent.

B1: 单域抗体 4C9 (VHH)
VHH: ESGGGSVQAGGSLRLSCAASEYTWSTTCMGWFRQAPGKEREGVAALYTRRGSTYYADSVKGRFTISRDNAENTVYLQMNSLKPEDTAMYYCASGPSTDFSCDYRRSNGYNYWGQGTQVTVSS
For B1, the EC50 was found to be 1.96 nM.

One may read the EC50 as the midpoint of the concentration-response curve.
